The source of these data is patent US20210340276A1 (Astellas, published 2021).

Holding throughout (test): ELISA, MUC1 peptide immobilized on 384-well plate, HRP anti-human Igκ detection, luminescence
Background: An ELISA detects its analyte on a solid surface through an enzyme-linked reagent.

The target of assay [1] is T1, Human cancer-specific MUC1 peptide (PTL 1) (human).
T1 construct: Immobilized at 0.5 µmol/L per well on a 384-well ELISA plate
As for the experimental part:
(§1) Human cancer-specific MUC1 peptide (PTL 1) was immobilized at 0.5 μmol/L per well onto a 384-well ELISA plate. The resultant was reacted with each anti-human MUC1 antibody Fab fragment conjugate described above (sample No. 5, 6, 7, or 3) and then reacted with a horseradish peroxidase-labeled goat anti-human Igκ antibody (Southern Biotechnology Associates, Inc.) as a secondary antibody. ECL Prime Western Blotting Detection Reagent (GE Healthcare Japan Corp.) was added thereto for luminescence, and the degree of the luminescence was examined.
(§2) Likewise, binding activity evaluation was also conducted as to the anti-human MUC1 antibody Fab fragment conjugates given below.

Assay [2] deals with T1, Human cancer-specific MUC1 peptide (PTL …). As for the experimental part:
as §1
The source holds these as a separate data set.

For assay [3] the target is unchanged. As for the experimental part:
as §1, §2
This is another data set of the same source.

Read-outs that look alike come from different tables or passages of the source.

B1: P10-2 Fab (Fab, V domains shown)
VH: QVQLVQSGAEVKKPGASVKVSCKASGYTFTNYGLSWVRQAPGQGLEWMGENHPGSGIIYHNEKFRGRVTLTADRSTSTAYMELSSLRSEDTAVYYCARSSGTRGFDYWGQGTLVTVSS
VL: DVVMTQTPLSLSVTPGQPASISCRSSQSIVHSNGNTYLEWYLQKPGQSPQLLIYRVSNRFSGVPDRFSGSGSGTDFTLKISRVEAEDVGVYYCFQGSHGPWTFGQGTKLEIKR
modifications: heavy chain N-terminal glutamine modified into pyroglutamic acid in a great majority of purified antibodies (Example 2)
notes: expressed in Expi293F cells, purified with KappaSelect; also called anti-human MUC1 antibody Fab fragment P10-2
The term EC50 denotes the concentration needed to bring the measured effect to its halfway point. Low values mean an effect from little substance, high ones a need for much substance. For B1, the EC50 is 0.17 nM in assay [1], 0.23 nM in assay [2] and 0.16 nM in assay [3].
